The results in this text go back to article PMC8373988, “Structures of a deAMPylation complex rationalise the switch between antagonistic catalytic activities of FICD” (Nature Communications, 2021).

For data set [1], the target named is T1, biotinylated-AviTag-haBiP^T229A-V461F (residues 27–635), unmodified (Chinese hamster, UniProt G3I8R9 27-635, T229A | V461F, biotin on the N-terminal Avi-tag).
T1 construct: Chinese hamster BiP residues 27–635; identical to human BiP over this range; A GS linker stands between the Avi-tag and BiP residue 27; also called unmodified BiP; BiP:ATP; source: E. coli, purified; biotinylated in vitro with GST-BirA, made nucleotide-free, MonoQ; not shown: His6-Smt3, N-terminal, cleaved; Avi-tag (biotinylated), N-terminal, kept
T1 sequence (G3I8R9 27-635 T229A/V461F): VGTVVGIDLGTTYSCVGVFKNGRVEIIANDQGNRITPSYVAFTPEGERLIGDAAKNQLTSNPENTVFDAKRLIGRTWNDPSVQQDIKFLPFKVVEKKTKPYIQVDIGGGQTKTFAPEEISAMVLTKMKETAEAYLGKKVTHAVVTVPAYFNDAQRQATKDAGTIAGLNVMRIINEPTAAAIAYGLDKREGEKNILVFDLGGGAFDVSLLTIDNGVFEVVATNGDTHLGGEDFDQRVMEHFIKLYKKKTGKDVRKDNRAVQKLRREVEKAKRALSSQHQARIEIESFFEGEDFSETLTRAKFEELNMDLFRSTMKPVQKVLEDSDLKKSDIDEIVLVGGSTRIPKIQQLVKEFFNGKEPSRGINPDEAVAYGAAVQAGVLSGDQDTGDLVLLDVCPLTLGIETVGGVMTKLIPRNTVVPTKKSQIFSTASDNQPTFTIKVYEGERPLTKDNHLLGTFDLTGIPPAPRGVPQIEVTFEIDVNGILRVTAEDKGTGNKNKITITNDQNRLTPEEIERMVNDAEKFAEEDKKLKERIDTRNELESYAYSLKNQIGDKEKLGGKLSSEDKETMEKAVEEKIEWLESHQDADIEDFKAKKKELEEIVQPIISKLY
The experiment in a line: BLI; biotinylated nucleotide-free BiP (BiP:Apo) immobilised on streptavidin biosensor, before ATP activation; 16 µM TPR domain for 50 s; HKMTx, 30 °C. The settings on record: both partners purified.

Data set [2] has as its target T1, biotinylated-AviTag-haBiP^T229A-V461F …. Put plainly: BLI; biotinylated BiP immobilised on streptavidin biosensor, activated with 2 mM ATP (BiP:ATP); TPR domain 62.5 nM to 16 µM, 50 s association and 50 s dissociation; HKMTx, 30 °C; one-phase global fit and steady-state one site fit. The conditions noted are these: both partners purified. For orientation: BLI is a label-free optical method that tracks binding on a fibre tip over time.

In data set [3] the target is T2, lid-truncated BiP^T229A-V461F-AMP (residues 27–549) (Chinese hamster, UniProt G3I8R9 27-549, T229A | V461F, AMP covalently attached to Thr518 (Thr518-AMP)).
T2 construct: Chinese hamster BiP residues 27–549 (all but helix A of SBDα removed); identical to human BiP over this range; also called AMPylated BiP; BiP-AMP; source: E. coli, purified (Ni-NTA, Ulp1 cleavage, anion exchange, gel filtration); AMPylated in vitro with GST-TEV-FICD^E234G; not shown: His6-Smt3, N-terminal, cleaved
T2 sequence (G3I8R9 27-549 T229A/V461F): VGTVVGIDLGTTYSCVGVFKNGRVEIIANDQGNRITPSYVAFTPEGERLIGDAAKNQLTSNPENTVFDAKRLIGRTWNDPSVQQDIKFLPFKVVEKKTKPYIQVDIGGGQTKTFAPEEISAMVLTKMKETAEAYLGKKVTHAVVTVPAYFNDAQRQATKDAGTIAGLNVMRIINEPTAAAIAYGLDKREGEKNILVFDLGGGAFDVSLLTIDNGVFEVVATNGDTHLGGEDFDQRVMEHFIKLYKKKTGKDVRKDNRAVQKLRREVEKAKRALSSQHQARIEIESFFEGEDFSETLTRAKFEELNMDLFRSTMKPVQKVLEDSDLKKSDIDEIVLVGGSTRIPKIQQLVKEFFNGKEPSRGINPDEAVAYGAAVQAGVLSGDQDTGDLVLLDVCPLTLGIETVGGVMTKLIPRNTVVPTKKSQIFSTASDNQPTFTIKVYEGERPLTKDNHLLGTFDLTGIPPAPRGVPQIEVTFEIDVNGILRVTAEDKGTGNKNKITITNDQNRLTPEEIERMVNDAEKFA
The experiment in a line: crystal structure; heterodimer copurified by gel filtration (FICD:BiP-AMP mixed 1.5:1 with 250 µM ATP, 50 mM KCl, 2 mM MgCl2; TNKMT buffer), sitting drop vapour diffusion at 25 °C; two crystal forms (state 1, state 2). The settings on record: both partners purified. In general terms: In gel filtration, larger molecules generally elute earlier.

For data set [4], the target named is T1, biotinylated-AviTag-haBiP^T229A-V461F …. Put plainly: BLI; biotinylated BiP or BiP-AMP immobilised on streptavidin biosensors, activated in 2 mM ATP for 200 s; apo FICD analytes at 50 nM unless otherwise specified; HKM with 0.05% Triton X-100, 30 °C; second dissociation step with 2 mM ATP. The settings on record: both partners purified.
Data set [5] addresses T3, AMPylated biotinylated-AviTag-haBiP^T229A-V461F (residues 27–635) (Chinese hamster, UniProt G3I8R9 27-635, T229A | V461F, AMP covalently attached to Thr518 (Thr518-AMP); biotin on the N-terminal Avi-tag).
T3 construct: Chinese hamster BiP residues 27–635; identical to human BiP over this range; A GS linker stands between the Avi-tag and BiP residue 27; also called AMPylated BiP; BiP-AMP; source: E. coli, purified; AMPylated in vitro with GST-TEV-FICD^E234G, biotinylated in vitro with GST-BirA, made nucleotide-free, MonoQ; not shown: His6-Smt3, N-terminal, cleaved; Avi-tag (biotinylated), N-terminal, kept
Described as above. The conditions noted are these: both partners purified.

Data set [6] concerns the molecule itself. The experiment in a line: contrast variation small-angle neutron scattering (SANS); complexes of partially deuterated and non-deuterated FICD^H363A and BiP-AMP copurified by gel filtration (1.25:1 BiP-AMP:FICD, 250 µM ATP) in TNKMT(0.2) at various %D2O; 4.3–5.5 mg/ml, 12 °C.
Data set [7] deals with T4, BiP^T229A-V461F-AMP (residues 27–635), 'full-length' AMPylated BiP (Chinese hamster, UniProt G3I8R9 27-635, T229A | V461F, AMP covalently attached to Thr518 (Thr518-AMP)).
T4 construct: Chinese hamster BiP residues 27–635 (lacks the unstructured acidic N-terminal region and the C-terminal region with KDEL); identical to human BiP over this range; The deAMPylation assays used BiP^T229A-V461F (UK2521) AMPylated in vitro; also called full-length BiP-AMP; hBiP-AMP; source: E. coli, purified (Ni-NTA, Ulp1 cleavage, anion exchange, gel filtration); AMPylated in vitro with …
T4 sequence (G3I8R9 27-635 T229A/V461F): as the sequence (G3I8R9 27-635 T229A/V461F) above
The data set is described as above. The conditions noted are these: both partners purified.

Substitutions are numbered along the chain they refer to. In names and notes the source's numbering stands.

T3 sequence (G3I8R9 27-635 T229A/V461F): as above

B1: isolated TPR domain of FICD (domain or fragment)
chain: LEARAALNQALEMKRQGKREKAQKLFMHALKMDPDFVDALTEFGIFSEEDKDIIQADYLYTRALTISPYH
By Kd is commonly meant the concentration at which binding is half-saturated. Higher therefore signals lower affinity. Consider B1, for which the Kd is above 160000 nM in data set [1] and 1100 nM in data set [2].

B2: FICD^L258D-H363A (residues 104–445), monomeric, catalytically inactive (enzyme, human, UniProt Q9BVA6 104-445, looked up)
chain: LEARAALNQALEMKRQGKREKAQKLFMHALKMDPDFVDALTEFGIFSEEDKDIIQADYLYTRALTISPYHEKALVNRDRTLPLVEEIDQRYFSIIDSKVKKVMSIPKGNSALRRVMEETYYHHIYHTVAIEGNTLTLSEIRHILETRYAVPGKSDEEQNEVIGMHAAMKYINTTLVSRIGSVTISDVLEIHRRVLGYVDPVEAGRFRTTQVLVGHHIPPHPQDVEKQMQEFVQWLNSEEAMNLHPVEFAALAHYKLVYIAPFIDGNGRTSRLLMNLILMQAGYPPITIRKEQRSDYYHVLEAANEGDVRPFIRFIAKCTETTLDTLLFATTEYSVALPEAQP
notes: human FICD, predicted structured regions, residues 104–445; L258D makes FICD monomeric; H363A traps the deAMPylation substrate; also called monomeric FICD^L258D-H363A; UK2093; source: E. coli, purified (Ni-NTA, on-bead Ulp1 cleavage, anion exchange, gel filtration); not shown: His6-Smt3, N-terminal, cleaved
For B2, the binding result in data set [3], in data set [4] and in data set [5] was “binds” throughout.

B3: dimeric FICD^H363A(TPRred): FICD^D160C-T183C-H363A-C421S, cysteines reduced (enzyme, human, UniProt Q9BVA6 104-445, looked up)
chain: B2 chain with D57C, T80C, D155L, C318S
notes: human FICD residues 104–445; The cysteine-reduced form of m11; also called TPRred (dimeric); source: E. coli, purified; not shown: His6-Smt3, N-terminal, cleaved
Turning to B3, the binding result in data set [5] was “binds”.

B4: dimeric FICD^H363A(TPRox): FICD^D160C-T183C-H363A-C421S, oxidised (enzyme, human, UniProt Q9BVA6 104-445, looked up)
chain: B2 chain with D57C, T80C, D155L, C318S
modifications: intramolecular disulfide bond between Cys160 and Cys183
notes: human FICD residues 104–445; also called TPRox (dimeric); source: E. coli, purified; oxidised with CuSO4 and 1,10-phenanthroline, Capto Q, RESOURCE Q, gel filtration; not shown: His6-Smt3, N-terminal, cleaved
For B4, the binding result in data set [5] is given as “binds”.

B5: monomeric FICD^L258D-H363A(TPRox): FICD^D160C-T183C-L258D-H363A-C421S, oxidised (enzyme, human, UniProt Q9BVA6 104-445, looked up)
chain: B2 chain with D57C, T80C, C318S
modifications: intramolecular disulfide bond between Cys160 and Cys183
notes: human FICD residues 104–445; PDB entries hold the parent m1; also called TPRox (monomeric); source: E. coli, purified; oxidised with CuSO4 and 1,10-phenanthroline, Capto Q, RESOURCE Q, gel filtration; not shown: His6-Smt3, N-terminal, cleaved
In the case of B5, the binding result in data set [4] and in data set [5] was “binds” each time.

B6: FICD^H363A (residues 104–445), dimeric, catalytically inactive (enzyme, human, UniProt Q9BVA6 104-445, looked up)
chain: B2 chain with D155L
notes: human FICD, predicted structured regions, residues 104–445; also called dimeric FICD; dimeric FICD^H363A; source: E. coli, purified (Ni-NTA, on-bead Ulp1 cleavage, anion exchange, gel filtration); matchout-deuterated form from E. coli BL21 Star (DE3), purified; not shown: His6-Smt3, N-terminal, cleaved
As to B6, the binding result in data set [6], in data set [7], in data set [4] and in data set [5] was “binds” throughout.
